This is an account of results in IntAct's records for PubMed 18001824.

The target in this experiment is rnf8_human RNF8 (UniProt O76064).
Sequence of UniProt O76064 (O76064 whole entry): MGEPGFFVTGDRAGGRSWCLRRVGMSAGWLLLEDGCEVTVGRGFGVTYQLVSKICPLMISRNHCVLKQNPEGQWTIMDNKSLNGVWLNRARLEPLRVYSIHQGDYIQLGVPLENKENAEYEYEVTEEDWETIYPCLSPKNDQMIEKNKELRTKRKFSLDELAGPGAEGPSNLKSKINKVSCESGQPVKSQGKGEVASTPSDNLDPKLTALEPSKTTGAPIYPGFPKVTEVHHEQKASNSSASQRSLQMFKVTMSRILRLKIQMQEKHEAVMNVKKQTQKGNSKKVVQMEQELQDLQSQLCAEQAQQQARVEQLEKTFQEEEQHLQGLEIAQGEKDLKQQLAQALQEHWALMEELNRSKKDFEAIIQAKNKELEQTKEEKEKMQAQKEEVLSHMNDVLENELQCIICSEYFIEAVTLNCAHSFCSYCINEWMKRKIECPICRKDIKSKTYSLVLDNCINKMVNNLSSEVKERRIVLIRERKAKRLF

Take “Mediator of DNA damage checkpoint protein 1 (Homo sapiens), Q14676 T699A;T719A;T752A”: the “effect of a mutation on the interaction” value is on record as “decreasing interaction”.
